Measured values taken from patent US20230190944A1.
Starred links: 1 amine or outer side, 2 acyl side, 3 side chain; linkers in the order of their positions; H or OH if unused. Non-standard residues stand in square brackets, D forms with d. Groups on a side chain read outwards from the residue. *: point of attachment. C20 diacid = O=C(O)CCCCCCCCCCCCCCCCCCC(=O)*; γGlu = O=C(O)[C@H](CCC(=O)[*:2])N[*:1]; AEEA = NCCOCCOCC(=O)O; Aib = CC(C)(N)C(=O)O

B1: Compound I (peptide)
peptide: Ac-ASHLSTAVLGKLS[Aib]ELHKLEDYPRTDVGAESP-NH2
SMILES: CC(=O)N[C@@H](C)C(=O)N[C@@H](CO)C(=O)N[C@@H](Cc1c[nH]cn1)C(=O)N[C@@H](CC(C)C)C(=O)N[C@@H](CO)C(=O)N[C@H](C(=O)N[C@@H](C)C(=O)N[C@H](C(=O)N[C@@H](CC(C)C)C(=O)NCC(=O)N[C@@H](CCCCN)C(=O)N[C@@H](CC(C)C)C(=O)N[C@@H](CO)C(=O)NC(C)(C)C(=O)N[C@@H](CCC(=O)O)C(=O)N[C@@H](CC(C)C)C(=O)N[C@@H](Cc1c[nH]cn1)C(=O)N[C@@H](CCCCN)C(=O)N[C@@H](CC(C)C)C(=O)N[C@@H](CCC(=O)O)C(=O)N[C@@H](CC(=O)O)C(=O)N[C@@H](Cc1ccc(O)cc1)C(=O)N1CCC[C@H]1C(=O)N[C@@H](CCCNC(=N)N)C(=O)N[C@H](C(=O)N[C@@H](CC(=O)O)C(=O)N[C@H](C(=O)NCC(=O)N[C@@H](C)C(=O)N[C@@H](CCC(=O)O)C(=O)N[C@@H](CO)C(=O)N1CCC[C@H]1C(N)=O)C(C)C)[C@@H](C)O)C(C)C)[C@@H](C)O
B2: Compound II (peptide)
peptide: Ac-ASHLSTAVLGK([AEEA-AEEA-γGlu-C20 diacid])LS[Aib]ELHKLEDYPRTDVGAESP-NH2
SMILES: CC(=O)N[C@@H](C)C(=O)N[C@@H](CO)C(=O)N[C@@H](Cc1c[nH]cn1)C(=O)N[C@@H](CC(C)C)C(=O)N[C@@H](CO)C(=O)N[C@H](C(=O)N[C@@H](C)C(=O)N[C@H](C(=O)N[C@@H](CC(C)C)C(=O)NCC(=O)N[C@@H](CCCCNC(=O)COCCOCCNC(=O)COCCOCCNC(=O)CC[C@H](NC(=O)CCCCCCCCCCCCCCCCCCC(=O)O)C(=O)O)C(=O)N[C@@H](CC(C)C)C(=O)N[C@@H](CO)C(=O)NC(C)(C)C(=O)N[C@@H](CCC(=O)O)C(=O)N[C@@H](CC(C)C)C(=O)N[C@@H](Cc1c[nH]cn1)C(=O)N[C@@H](CCCCN)C(=O)N[C@@H](CC(C)C)C(=O)N[C@@H](CCC(=O)O)C(=O)N[C@@H](CC(=O)O)C(=O)N[C@@H](Cc1ccc(O)cc1)C(=O)N1CCC[C@H]1C(=O)N[C@@H](CCCNC(=N)N)C(=O)N[C@H](C(=O)N[C@@H](CC(=O)O)C(=O)N[C@H](C(=O)NCC(=O)N[C@@H](C)C(=O)N[C@@H](CCC(=O)O)C(=O)N[C@@H](CO)C(=O)N1CCC[C@H]1C(N)=O)C(C)C)[C@@H](C)O)C(C)C)[C@@H](C)O

How the values were obtained:
[1] = target: Human CT receptor (calcitonin receptor) (human), P30988; assay: cell-based or functional assay
Sequence of Human CT receptor (calcitonin receptor) (human), P30988 (P30988 25-474): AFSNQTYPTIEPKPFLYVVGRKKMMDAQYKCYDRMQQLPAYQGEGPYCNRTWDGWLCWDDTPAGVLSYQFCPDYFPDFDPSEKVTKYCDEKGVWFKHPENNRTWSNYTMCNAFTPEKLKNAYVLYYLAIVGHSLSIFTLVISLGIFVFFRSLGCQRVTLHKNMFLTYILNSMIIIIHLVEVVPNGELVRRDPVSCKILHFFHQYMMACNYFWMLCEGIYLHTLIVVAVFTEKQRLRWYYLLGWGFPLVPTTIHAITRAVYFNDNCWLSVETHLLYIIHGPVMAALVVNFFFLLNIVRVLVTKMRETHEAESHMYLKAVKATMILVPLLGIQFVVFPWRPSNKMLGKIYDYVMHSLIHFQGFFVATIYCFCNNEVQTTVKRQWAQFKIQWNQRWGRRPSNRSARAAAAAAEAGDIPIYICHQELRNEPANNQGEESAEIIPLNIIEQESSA

[2] = target: Human AMY1 receptor (amylin receptor 1) (human), P30988; assay: cell-based or functional assay
Sequence of Human AMY1 receptor (amylin receptor 1) (human), P30988 (P30988 25-474, chain 1 of 2): as the sequence (P30988 25-474) above
Sequence of Human AMY1 receptor (amylin receptor 1) (human), P30988 (O60894 27-148, chain 2 of 2, further chain): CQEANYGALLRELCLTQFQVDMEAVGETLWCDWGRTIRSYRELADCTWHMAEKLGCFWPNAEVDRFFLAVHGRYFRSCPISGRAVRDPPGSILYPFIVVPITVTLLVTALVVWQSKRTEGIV

Binder	hCT cAMP EC50 (pM) [1] [pM]	hAMY1 cAMP EC50 (pM) [2] [pM]
B1	31.7	49.3
B2	40.9	49.4
